In the supplement of paper PMC10567573:

B1: RSPH3 (parent)
chain: KAASLARNLAKRRRTYLGGAAGRS
B2: SLC22A15 (parent)
chain: IAQYALLGYFIRSWRTLAILVNLQ

Variants of: B1
Assay: protein stability index of a GFP-peptide fusion (GPS, HEK-293T) (PSI 1-6); higher = more stable
Settings: c terminus: a fixed tail appended
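Further: lentivirally expressed fusions sorted by FACS into six bins by GFP to DsRed ratio, PSI derived from sequencing read proportions per bin multiplied by bin number.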

Variant	protein stability index
KAASLARNLAKRRRTYLGGAAGRN	1.85
KAASLARNLAKRRRTYLGGAAGRP	1.83
KAASLARNLAKRRRTYLGGAAGRE	2.01
KAASLARNLAKRRRTYLGGAAGRI	3.4
KAASLARNLAKRRRTYLGGAAGRK	2
KAASLARNLAKRRRTYLGGAAGRD	3.31
KAASLARNLAKRRRTYLGGAAGRQ	3.37
KAASLARNLAKRRRTYLGGAAGRM	2.2
KAASLARNLAKRRRTYLGGAAGRL	2.04
KAASLARNLAKRRRTYLGGAAGRA	2.7
KAASLARNLAKRRRTYLGGAAGRR	2.32
KAASLARNLAKRRRTYLGGAAGRC	2.11
KAASLARNLAKRRRTYLGGAAGRF	1.94
KAASLARNLAKRRRTYLGGAAGRH	2.41
KAASLARNLAKRRRTYLGWAAGRS	1.67
KAASLARNLAKRRRTYLGIAAGRS	1.87
KAASLARNLAKRRRTYLGPAAGRS	1.46
KAASLARNLAKRRRTYLGNAAGRS	2.68
KAASLARNLAKRRRTYLGFAAGRS	2.03
KAASLARNLAKRRRTYLGTAAGRS	2.38
KAASLARNLAKRRRTYLGSAAGRS	3.14
KAASLARNLAKRRRTYLGHAAGRS	2.59
KAASLARNLAKRRRTYLGCAAGRS	1.97
KAASLARNLAKRRRTYLGEAAGRS	2.13
KAASLARNLAKRRRTYLGAAAGRS	2.32

Variant	protein stability index
KAASLARNLAKRRRTYLGRAAGRS	2.93
KAASLARNLAKRRRTYLGQAAGRS	3.22
KAASLARNLAKRRRTYLGGAAHRS	1.44
KAASLARNLAKRRRTYLGGAALRS	2.42
KAASLARNLAKRRRTYLGGAADRS	2.03
KAASLARNLAKRRRTYLGGAANRS	3.29
KAASLARNLAKRRRTYLGGAAFRS	2.17
KAASLARNLAKRRRTYLGGAAYRS	2
KAASLARNLAKRRRTYLGGAAWRS	1.44
KAASLARNLAKRRRTYLGGAAKRS	2.05
KAASLARNLAKRRRTYLGGAAGLS	1.83
KAASLARNLAKRRRTYLGGAAGCS	1.99
KAASLARNLAKRRRTYLGGAAGFS	1.63
KAASLARNLAKRRRTYLGGAAGGS	1.85
KAASLARNLAKRRRTYLGGAAGVS	2.15
KAASLARNLAKRRRTYLGGAAGKS	2.14
KAASLARNLAKRRRTYLGGAAGPS	2.83
KAASLARNLAKRRRTYLGGAAGHS	2.37
KAASLARNLAKRRRTYLGGAAGWS	1.61
KAASLARNLAKRRRTYLGGAAGQS	1.23
KAASLARNLAKRRRTYLGGAAGIS	1.59
KAASLARNLAKRRRTYLGGAAGMS	2
KAASLARNLAKRRRTYLGGAAGDS	2.61
KAASLARNLAKRRRTYLGGTAGRS	2.35
KAASLARNLAKRRRTYLGGMAGRS	2.42

Variant	protein stability index
KAASLARNLAKRRRTYLGGWAGRS	2.48
KAASLARNLAKRRRTYLGGSAGRS	1.72
KAASLARNLAKRRRTYLGGVAGRS	2.6
KAASLARNLAKRRRTYLGGHAGRS	2.59
KAASLARNLAKRRRTYLGGRAGRS	2.98
KAASLARNLAKRRRTYLGGEAGRS	2.45
KAASLARNLAKRRRTYLGGGAGRS	3.39
KAASLARNLAKRRRTYLGGDAGRS	3.98
KAASLARNLAKRRRTYLGGAWGRS	1.7
KAASLARNLAKRRRTYLGGAVGRS	2.25
KAASLARNLAKRRRTYLGGAEGRS	3.14
KAASLARNLAKRRRTYLGGARGRS	1.71
KAASLARNLAKRRRTYLGGADGRS	2.69
KAASLARNLAKRRRTYLGGAIGRS	1.91
KAASLARNLAKRRRTYLGGAPGRS	2.68
KAASLARNLAKRRRTYLGGAKGRS	3.2
KAASLARNLAKRRRTYLSGAAGRS	1.69
KAASLARNLAKRRRTYLMGAAGRS	2.5
KAASLARNLAKRRRTYLIGAAGRS	2.86
KAASLARNLAKRRRTYLLGAAGRS	2.32
KAASLARNLAKRRRTYLTGAAGRS	1.97
KAASLARNLAKRRRTYLVGAAGRS	2.36
KAASLARNLAKRRRTYLYGAAGRS	3.11
KAASLARNLAKRRRTYLKGAAGRS	2.35
KAASLARNLAKRRRTYLHGAAGRS	3.07

Variants of: B2
Assay: as above
Settings: c terminus: a fixed tail appended

Variant	protein stability index
IAQYALLGYIIRSWRTLAILVNLQ	4.57
IAQYALLGYHIRSWRTLAILVNLQ	3.27
IAQYALLGYGIRSWRTLAILVNLQ	1.67
IAQYALLGYAIRSWRTLAILVNLQ	3.58
IAQYALLGYEIRSWRTLAILVNLQ	4.46
IAQYALLGYKIRSWRTLAILVNLQ	2.44
IAQYALLGYPIRSWRTLAILVNLQ	2.24
IAQYALLGYCIRSWRTLAILVNLQ	2.86
IAQYALLGYLIRSWRTLAILVNLQ	3.4
IAQYALLGYTIRSWRTLAILVNLQ	4.13
IAQYALLGYVIRSWRTLAILVNLQ	3.1
IAQYALLGYQIRSWRTLAILVNLQ	3.4
IAQNALLGYFIRSWRTLAILVNLQ	4.26
IAQQALLGYFIRSWRTLAILVNLQ	2.44
IAQEALLGYFIRSWRTLAILVNLQ	3.39
IAQFALLGYFIRSWRTLAILVNLQ	3.81
IAQIALLGYFIRSWRTLAILVNLQ	1.57
IAQCALLGYFIRSWRTLAILVNLQ	3.29
IAQPALLGYFIRSWRTLAILVNLQ	4.01
IAQWALLGYFIRSWRTLAILVNLQ	2.78
IAQAALLGYFIRSWRTLAILVNLQ	3
IAQYALLKYFIRSWRTLAILVNLQ	1.71
IAQYALLVYFIRSWRTLAILVNLQ	2.97

Variant	protein stability index
IAQYALLHYFIRSWRTLAILVNLQ	2.21
IAQYALLYYFIRSWRTLAILVNLQ	1.76
IAQYALLNYFIRSWRTLAILVNLQ	1.67
IAQYALLQYFIRSWRTLAILVNLQ	3.07
IAQYALLLYFIRSWRTLAILVNLQ	1.88
IAQYALLIYFIRSWRTLAILVNLQ	3.12
IAQYALLEYFIRSWRTLAILVNLQ	1.83
IAQYALLSYFIRSWRTLAILVNLQ	3.52
IAQYALLPYFIRSWRTLAILVNLQ	1.82
IAQYALLFYFIRSWRTLAILVNLQ	2.71
IAQYALLCYFIRSWRTLAILVNLQ	2.42
IAQYALLMYFIRSWRTLAILVNLQ	3.1
IAQYAPLGYFIRSWRTLAILVNLQ	2.95
IAQYATLGYFIRSWRTLAILVNLQ	4.1
IAQYANLGYFIRSWRTLAILVNLQ	2.26
IAQYAKLGYFIRSWRTLAILVNLQ	2.31
IAQYAYLGYFIRSWRTLAILVNLQ	2.49
IAQYARLGYFIRSWRTLAILVNLQ	4.15
IAQYAHLGYFIRSWRTLAILVNLQ	1.67
IAQYAGLGYFIRSWRTLAILVNLQ	4.36
IAQYASLGYFIRSWRTLAILVNLQ	2.22
IAQYAILGYFIRSWRTLAILVNLQ	3.23
IAQYAELGYFIRSWRTLAILVNLQ	2.55

Variant	protein stability index
IAQYAFLGYFIRSWRTLAILVNLQ	2.34
IAQYAQLGYFIRSWRTLAILVNLQ	2.46
IAQYAMLGYFIRSWRTLAILVNLQ	3.42
IAQYSLLGYFIRSWRTLAILVNLQ	2.48
IAQYILLGYFIRSWRTLAILVNLQ	2.52
IAQYKLLGYFIRSWRTLAILVNLQ	2.1
IAQYELLGYFIRSWRTLAILVNLQ	1.82
IAQYRLLGYFIRSWRTLAILVNLQ	2.33
IAQYGLLGYFIRSWRTLAILVNLQ	3.8
VAQYALLGYFIRSWRTLAILVNLQ	2.17
PAQYALLGYFIRSWRTLAILVNLQ	1.52
DAQYALLGYFIRSWRTLAILVNLQ	2.92
NAQYALLGYFIRSWRTLAILVNLQ	4.39
IAHYALLGYFIRSWRTLAILVNLQ	2.13
IACYALLGYFIRSWRTLAILVNLQ	3.46
IAVYALLGYFIRSWRTLAILVNLQ	4.91
IAGYALLGYFIRSWRTLAILVNLQ	3.38
IARYALLGYFIRSWRTLAILVNLQ	4.63
IALYALLGYFIRSWRTLAILVNLQ	3.15
IAAYALLGYFIRSWRTLAILVNLQ	3.14
IAKYALLGYFIRSWRTLAILVNLQ	1.96
IADYALLGYFIRSWRTLAILVNLQ	2.29
IMQYALLGYFIRSWRTLAILVNLQ	3.88

Variant	protein stability index
IEQYALLGYFIRSWRTLAILVNLQ	2.65
IKQYALLGYFIRSWRTLAILVNLQ	2.18
ITQYALLGYFIRSWRTLAILVNLQ	3.18
IPQYALLGYFIRSWRTLAILVNLQ	4.19
IVQYALLGYFIRSWRTLAILVNLQ	2.88
ISQYALLGYFIRSWRTLAILVNLQ	2.1
IHQYALLGYFIRSWRTLAILVNLQ	2.48
IFQYALLGYFIRSWRTLAILVNLQ	1.95
IIQYALLGYFIRSWRTLAILVNLQ	3.22
INQYALLGYFIRSWRTLAILVNLQ	4.69
IGQYALLGYFIRSWRTLAILVNLQ	2.41
IRQYALLGYFIRSWRTLAILVNLQ	3.65
IAQYALMGYFIRSWRTLAILVNLQ	2.97
IAQYALYGYFIRSWRTLAILVNLQ	2.5
IAQYALIGYFIRSWRTLAILVNLQ	1.71
IAQYALDGYFIRSWRTLAILVNLQ	2.67
IAQYALNGYFIRSWRTLAILVNLQ	3.3
IAQYALQGYFIRSWRTLAILVNLQ	2.52
IAQYALCGYFIRSWRTLAILVNLQ	3.99
IAQYALSGYFIRSWRTLAILVNLQ	3.26
IAQYALWGYFIRSWRTLAILVNLQ	2.78
IAQYALLGCFIRSWRTLAILVNLQ	2.75
IAQYALLGNFIRSWRTLAILVNLQ	2.22

Variant	protein stability index
IAQYALLGAFIRSWRTLAILVNLQ	1.47
IAQYALLGEFIRSWRTLAILVNLQ	2.03
IAQYALLGIFIRSWRTLAILVNLQ	2.71
IAQYALLGDFIRSWRTLAILVNLQ	2.57
IAQYALLGGFIRSWRTLAILVNLQ	3.34
IAQYALLGQFIRSWRTLAILVNLQ	4.48
IAQYALLGWFIRSWRTLAILVNLQ	2.92
IAQYALLGKFIRSWRTLAILVNLQ	1.29
IAQYALLGYFCRSWRTLAILVNLQ	2.6
IAQYALLGYFDRSWRTLAILVNLQ	3.1
IAQYALLGYFPRSWRTLAILVNLQ	2.1
IAQYALLGYFFRSWRTLAILVNLQ	3.45
IAQYALLGYFERSWRTLAILVNLQ	1.63
IAQYALLGYFMRSWRTLAILVNLQ	2.89
IAQYALLGYFQRSWRTLAILVNLQ	2.14
IAQYALLGYFNRSWRTLAILVNLQ	2.32
IAQYALLGYFKRSWRTLAILVNLQ	3.38
IAQYALLGYFARSWRTLAILVNLQ	2.96
IAQYALLGYFRRSWRTLAILVNLQ	2.37
IAQYALLGYFHRSWRTLAILVNLQ	2.63
IAQYALLGYFLRSWRTLAILVNLQ	2.34
